Results taken from the supplement of paper PMC9170038.

Tested on: MS2 coat protein
Test: apparent KD of MS2 coat protein; designed switch direction (-1 OFF switch, 1 ON switch): -1; higher = weaker reporter binding
How it was run: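 Designed RNA switches with common flanks were made on Illumina chips by stalled E. coli RNA polymerase. Titration with SNAP-549-labelled MS2 coat protein doubled from 0.7 or 1.5 nM up to 3 µM. Apparent KD is each design's median over clusters after curve-fitting normalised fluorescence.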

[1] = input ligand: microRNA oligo, concentration not stated
[2] = Eterna round: R95, input ligand: FMN 200 uM
[3] = Eterna round: R95, input ligand: microRNA oligo, concentration not stated
[4] = Eterna round: R95, input ligand: none

Sequence: AGCUGUGGCCGAGGAUAUCUAAACCUUCAAACCGAAAUAUAAUCGGACAUGAGGAUCACCCAUGUAGAGAAGGCGGUCUCAGCA [Eli eng2 - 034] (Eterna round: R96, puzzle: Exclusion NG 2)
- apparent KD of MS2 coat protein [1]: 9.91 nM

Sequence: AGCUGUGGCCGAGGAUAUCUAUCUCAUAAAACCGAAAUAUAAUCGGACAUGAGGAUCACCCAUGUAGAGAAGGCGGUCUCAGCA [Eli eng2 - 095] (Eterna round: R96, puzzle: Exclusion NG 2)
- apparent KD of MS2 coat protein [1]: 20.1 nM

Sequence: AGCUGUGGCCGAGGAUAUCUAUCUCCAAUAACCGAAAUAUAAUCGGACAUGAGGAUCACCCAUGUAGAGAAGGCGGUCUCAGCA [Eli eng2 - 090] (Eterna round: R96, puzzle: Exclusion NG 2)
- apparent KD of MS2 coat protein [1]: 15 nM

Sequence: AGCUGUGGCCGAGGAUAUCUAUUAAUCCAAACCGAAAUAUAAUCGGACAUGAGGAUCACCCAUGUAGAGAAGGCGGUCUCAGCA [Eli eng2 - 077] (Eterna round: R96, puzzle: Exclusion NG 2)
- apparent KD of MS2 coat protein [1]: 53.5 nM

Sequence: AGCUGUGGCCGAGGAUAUCUGAUAGUCCCAACCGAAAUAUAAUCGGACAUGAGGAUCACCCAUGUAGAGAAGGCGGUCUCAGCA [Eli eng2 - 070] (Eterna round: R96, puzzle: Exclusion NG 2)
- apparent KD of MS2 coat protein (input ligand: FMN 200 uM): 214 nM
- apparent KD of MS2 coat protein [1]: 57.9 nM
- apparent KD of MS2 coat protein (input ligand: none): 73.9 nM

Sequence: AGGAAUGAAGGAUAUACAUGAGGAUCACCCAUGUAAAACAAGAGAUUUGAUGUAUAAUGUAGAAGGUCAAGAAG [JR_Exclusion3_Sub003] (puzzle: Exclusion 3)
- apparent KD of MS2 coat protein [2]: 25.2 nM
- apparent KD of MS2 coat protein [3]: 30.5 nM
- apparent KD of MS2 coat protein [4]: 35.5 nM

Sequence: AGGAGCCCACGGGCUCCAAAACAUGAGGAUCACCCAUGUCAGUAGGAUAUCAUGCUUUUCUGCUGUGAGAAGGGCUGAUGUGGC [Esededor] (Eterna round: R96, puzzle: Exclusion NG 3)
- apparent KD of MS2 coat protein (input ligand: FMN 200 uM): 199 nM
- apparent KD of MS2 coat protein [1]: 33.8 nM
- apparent KD of MS2 coat protein (input ligand: none): 49 nM

Sequence: AGGAUGAGAGGAUAUACAAACGGUCCCACAAUCUCACGGGCACAUGAGGAUCACCCAUGUAGAAGGCUCAUUGG [EX2 B.28] (Eterna round: R97, puzzle: Exclusion 2)
- apparent KD of MS2 coat protein (input ligand: FMN 200 uM): 325 nM
- apparent KD of MS2 coat protein (input ligand: none): 49.6 nM

Sequence: AGGCAAUCAGGAUAUACAUGAGGAUCACCCAUGUGUACAAAGCACAUCCGAUCUAGAUGUAGAAGGGAUAUGCA [Usmabesobi] (puzzle: Exclusion 3)
- apparent KD of MS2 coat protein [3]: 18 nM

Sequence: AGGUAACAUGAGGAUCACCCAUGUCAGGAUAUCAGUAAGAUGAGUAUAGAAGAGAGUAUGAGAAGGGACUAUAU [Excluse me! 25 - Jieux - Exclusion 1] (puzzle: Exclusion 1)
- apparent KD of MS2 coat protein [3]: 31.2 nM

Sequence: AGGUAACAUGAGGAUCACCCAUGUCAGGAUAUCAGUAAGAUGAGUAUAGAAUAGAGUAUGAGAAGGGACUAUAU [Excluse me! 24 - Jieux - Exclusion 1] (puzzle: Exclusion 1)
- apparent KD of MS2 coat protein [3]: 30.4 nM

Sequence: AGGUCCUUCUGGACACAUGAGGAUCACCCAUGUGCGGUCAGCGAGGAUAUCGGUCUAUAAUGUGACGAGAAGGCGCGGACCGAU [Ex NG3 #60] (Eterna round: R96, puzzle: Exclusion NG 3)
- apparent KD of MS2 coat protein (input ligand: FMN 200 uM): 38.9 nM
- apparent KD of MS2 coat protein [1]: 15.3 nM
- apparent KD of MS2 coat protein (input ligand: none): 20.7 nM

Sequence: AGGUGCUUCUGGAGACAUGAGGAUCACCCAUGUCGAGUCAGCGAGGAUAUCGGUAAGGCAUGUGAUGAGAAGGCGCAGACCGAU [Ex NG3 #51] (Eterna round: R96, puzzle: Exclusion NG 3)
- apparent KD of MS2 coat protein (input ligand: FMN 200 uM): 33.7 nM
- apparent KD of MS2 coat protein [1]: 20.3 nM
- apparent KD of MS2 coat protein (input ligand: none): 26.4 nM

Sequence: AGUAACUAUCACGAAAGUGAUAGUUACACAAGCAGUGAAACAUGAGGAUCACCCAUGUCCUCAUUAGCUCGUCUUAU [Sensor 3 - 32] (puzzle: Sensor v3, turn-off variant 2)
- apparent KD of MS2 coat protein [2]: 117 nM
- apparent KD of MS2 coat protein [3]: 729 nM
- apparent KD of MS2 coat protein [4]: 164 nM

Sequence: AGUAACUCAAGAGGAUAUCACAUGAGGAUCACCCAUGUAUAGCGCGCUAUGCUAGUCCUCGUAUUUGAGAAGGUUUGAUAAAUG [JL ViennaUCT Quve mod 2] (Eterna round: R96, puzzle: Exclusion NG 2)
- apparent KD of MS2 coat protein (input ligand: FMN 200 uM): 16.8 nM
- apparent KD of MS2 coat protein [1]: 13.1 nM
- apparent KD of MS2 coat protein (input ligand: none): 17.2 nM

Sequence: AGUAAGCUAGGAUAUGCUUUGGGAAAGCAUUCCUUCGAUAAACUUGAGGAUCACCCAAGUAGAAGGAGCUUACC [salish99_ex2_r4_002] (Eterna round: R97, puzzle: Exclusion 2)
- apparent KD of MS2 coat protein (input ligand: FMN 200 uM): 13.4 nM
- apparent KD of MS2 coat protein (input ligand: none): 12.4 nM

Sequence: AGUACUAACACGCAAGUGUUAGUACAAUAAGCUUGUGAAACAUGAGGAUCACCCAUGUCCUCAUAAGCUCGUCUUAU [salish99_TOv2_r3_027] (puzzle: Sensor v3, turn-off variant 2)
- apparent KD of MS2 coat protein [2]: 16.2 nM
- apparent KD of MS2 coat protein [3]: 490 nM
- apparent KD of MS2 coat protein [4]: 16.5 nM

Sequence: AGUACUAACACGCCUGUGUUAGUACAAUAAGCUUGUGAAACAUGAGGAUCACCCAUGUCCUCAUAAGCUCGUCUUAU [salish99_TOv2_r3_077] (puzzle: Sensor v3, turn-off variant 2)
- apparent KD of MS2 coat protein [2]: 16.3 nM
- apparent KD of MS2 coat protein [3]: 671 nM
- apparent KD of MS2 coat protein [4]: 15.4 nM

Sequence: AGUACUAACACGUAAGUGUUAGUACUAUAAGCUUGUGUUACAUGAGGAUCACCCAUGUCCUCAUAAGCUCGUCUUAA [Mat - Sensor v3 - Turn-off var 2 - D71] (puzzle: Sensor v3, turn-off variant 2)
- apparent KD of MS2 coat protein [2]: 34.3 nM
- apparent KD of MS2 coat protein [3]: 132 nM
- apparent KD of MS2 coat protein [4]: 39.4 nM

Sequence: AGUACUAACUCGAUAGUGUUAGUACAAUAAGCUUGUGAAACAUGAGGAUCACCCAUGUCCUCAUAAGCUCGUCUUAU [salish99_TOv2_r3_1004] (puzzle: Sensor v3, turn-off variant 2)
- apparent KD of MS2 coat protein [2]: 16.9 nM
- apparent KD of MS2 coat protein [3]: 726 nM
- apparent KD of MS2 coat protein [4]: 15.4 nM

Sequence: AGUACUAUCACGAAAGUGAUAGUACAAUAAGCUUGUGGAACAUGAGGAUCACCCAUGUCCUCAUAAGCUCGUCUUAU [Mat - Sensor v3 - Turn-off var 2 - D27] (puzzle: Sensor v3, turn-off variant 2)
- apparent KD of MS2 coat protein [2]: 15.7 nM
- apparent KD of MS2 coat protein [3]: 68.7 nM
- apparent KD of MS2 coat protein [4]: 14.7 nM

Sequence: AGUACUAUCACGAGAGUGAUAGUACAUUAAACUUGUGAGACAUGAGGAUCACCCAUGUCCUCAUGAGCUCGUCUUAA [Mat - Sensor v2 - var 2 - Mod - D185] (Eterna round: R96, puzzle: Sensor v2, turn-off variant 2)
- apparent KD of MS2 coat protein (input ligand: FMN 200 uM): 299 nM
- apparent KD of MS2 coat protein [1]: 96.1 nM
- apparent KD of MS2 coat protein (input ligand: none): 165 nM

Sequence: AGUACUAUGCGAGCUGACUUGCGUAGUGCAGCAGGUGAAACAUGAGGAUCACCCAUGUCCUCAUUUGCUCGUCUUAA [Mat - Sensor v3 - Turn-off var 2 - D3] (puzzle: Sensor v3, turn-off variant 2)
- apparent KD of MS2 coat protein [2]: 39.7 nM
- apparent KD of MS2 coat protein [3]: 563 nM
- apparent KD of MS2 coat protein [4]: 38 nM

Sequence: AGUACUAUGCGUGCUGACAUGCGUAGUGCAGCAGGUGUAACAUGAGGAUCACCCAUGUCCUCAUUUGCUCGUCUUAA [Mat - Sensor v3 - Turn-off var 2 - D13] (puzzle: Sensor v3, turn-off variant 2)
- apparent KD of MS2 coat protein [2]: 107 nM
- apparent KD of MS2 coat protein [3]: 224 nM
- apparent KD of MS2 coat protein [4]: 129 nM

Sequence: AGUAGAUCUACGCUUGCGUGGAUCUGCAAGGCAGGUGUUACAUGAGGAUCACCCAUGUCCUCAUUUGCUCGUCUUAG [JL turnoff v2 99.07] (puzzle: Sensor v3, turn-off variant 2)
- apparent KD of MS2 coat protein [2]: 358 nM
- apparent KD of MS2 coat protein [3]: 1100 nM
- apparent KD of MS2 coat protein [4]: 332 nM

Sequence: AGUAGAUCUACGCUUGCGUGGAUCUGCAUUGCAAGUGUAACAUGAGGAUCACCCAUGUCCUCAUUUGCUCGUCUUAU [JL turnoff v2 99.02] (puzzle: Sensor v3, turn-off variant 2)
- apparent KD of MS2 coat protein [2]: 54.4 nM
- apparent KD of MS2 coat protein [3]: 277 nM
- apparent KD of MS2 coat protein [4]: 54.2 nM

Sequence: AGUAGAUCUACGCUUGCGUGGAUCUGCUAGGCAGGUGUUACAUGAGGAUCACCCAUGUCCUCAUUUGUUCGUCUUAU [JL turnoff v2 99.17] (puzzle: Sensor v3, turn-off variant 2)
- apparent KD of MS2 coat protein [2]: 378 nM
- apparent KD of MS2 coat protein [3]: 153 nM
- apparent KD of MS2 coat protein [4]: 604 nM

Sequence: AGUAGGAGAGGAUAUACGAAGUCAAAAGACUUCGAUCCUCAACAUGAGGAUCACCCAUGUAGAAGGCUCCUACA [Omei Ex2 BD A1] (Eterna round: R97, puzzle: Exclusion 2)
- apparent KD of MS2 coat protein (input ligand: FMN 200 uM): 166 nM
- apparent KD of MS2 coat protein (input ligand: none): 154 nM

Sequence: AGUAGGUCUACCUUGGUGGAUCUGCAUUUAUGCAGGUGAACAUGAGGAUCACCCAUGUCCUCAUUUGCUCGUCUUAU [JL turnoff v2 99.28] (puzzle: Sensor v3, turn-off variant 2)
- apparent KD of MS2 coat protein [2]: 55.3 nM
- apparent KD of MS2 coat protein [3]: 539 nM
- apparent KD of MS2 coat protein [4]: 61.5 nM

Sequence: AGUAGUAGUAUCCGAUCGUACAUGAGGAUCACCCAUGUAGCUAGACGUGCACGCGAUGCUCGUCAGACUACCAGAUG [salish99_TOv1_r3_036] (puzzle: Sensor v3, turn-off variant 1)
- apparent KD of MS2 coat protein [2]: 202 nM
- apparent KD of MS2 coat protein [3]: 168 nM
- apparent KD of MS2 coat protein [4]: 225 nM

Sequence: AGUAGUAGUAUCCGGUCCUACAUGAGGAUCACCCAUGUAGCUAGACGUGCACGCGAUGCUCGUCAGACUACCAGAUG [salish99_TOv1_r3_045] (puzzle: Sensor v3, turn-off variant 1)
- apparent KD of MS2 coat protein [2]: 48.6 nM
- apparent KD of MS2 coat protein [3]: 45.1 nM
- apparent KD of MS2 coat protein [4]: 59.5 nM

Sequence: AGUAGUUGUUUCCGUUCUUACAUGAGGAUCACCCAUGUUUCUUGUCGUGCUCGCGUUGCUCGUCAGACUACCAGAUG [salish99_TOv1_r3_060] (puzzle: Sensor v3, turn-off variant 1)
- apparent KD of MS2 coat protein [2]: 51.1 nM
- apparent KD of MS2 coat protein [3]: 57.8 nM
- apparent KD of MS2 coat protein [4]: 75.8 nM
